This is an account of results in US20250357519A1, “APPLICATIONS OF O2-INSENSITIVE FORMATE DEHYDROGENASE” (UNIVERSITY OF MARYLAND, BALTIMORE, priority 2022, published 2025).

Substrate in the data set: O=CO
As to the kind of experiment: purified protein, by the assay type.

B1: Desulfovibrio vulgaris Hildenborough (DvH) FDH2, recombinant Strep-tag II-tagged (FDH2^Rec), large subunit DVU2482 SEQ ID NO: 31, small subunit DVU2481 SEQ ID … (protein)
chain: AELKIAKAKVTPSVCCFCAVGCGLLVYTDTQTGRSINIEGDPDHPTNEGTLCPKGASIWQTTERSKRVTKVLYRAPGAAAWEEKSWDWALPRIARKIKETRDATFELTNDKGQTVNRTRGIASVGSAAVDNEEGWLMQAMMRALGLVYIESHARIUHSSTVGALAESYGRGAMTNHWIDLKNSDVILIMGSNAAENHPISFKWVTRAQERGATLIHVDPRFTRTSAKADIHAHIRSGTDIAFFGGLIRYIMENDLFFRQYVVDYTNASYIVGADYGFADGLFTGFDAEKGTYNTKKWAFAADENGMTLKDPTLNDPRCVFQLMKAHYARYDRKTVSDVTGISEEQLATLWSTFASTGKPDRAGTILYAMGQCQHTVGVQNIRALSMIQLLLGNIGIAGGGVNALRGESNVQGTTDISLLCDNLSGYLPTPKASWATFDDYVKGTTPVDKDPKSANWWSNRGKYLASYMKSVYPTASHQDGYLWHPKVDDGKITDYSWLQIFERMSKGGFKGAFVWGQNPCAGGANAGKNRKAMETLDWMVVVNLFENESSLFWKGPGVDPAKVKTEVFFLPACMSVEKGGSIANSGRWLQWREPGPKPMGDSRSDGDIVLDLYDEIRKLYREEKGAFPEPVLALDTDYRTDGKYDHHKVAKTLNGKFLTDVTIGDKTYKAGQQVPGFAMLQADGSTTSGCWIFTGCYTDAGNMMARRDRTQTPEQAAIGLFPNWSYAWPANRRILYNRAAVDMTGKPFDPKRAVIAWNGEKWVGDVPDGGWKPGEKLPFIMIREGRGQLFGPGRVDGPFPEHYEPFESPLESHPFSKQRVNPTALAFSHEPKAVRDKRYPFICTTYRVTEQWQSGTMTRNTGWLKEMQPEGFCEISRELAKELGIANGDAVVLESLRGKVQVVAIVTPRLKPFKVMGEVMHEVGIPWQFGWGQHVGKGDSANLLSPSVGDPNTGIPETKVFMVNLRKA
As to B1, the Michaelis-Menten constant (Km) (as a rule, the substrate concentration at which the rate is half of its maximum) is 2.1 ± 0.1 µM (other: 2 mM BV (anaerobic), full progress curve, calculated from kcat and kcat/Km, pH 8.0, 25.0 °C); 3.5 ± 0.9 µM (other: BV (2 mM), anaerobic, initial velocities, 3 replicates, pH 8.0, 25 °C); 7 ± 3 µM (other: BV (20 mM), anaerobic, initial velocities, 3 replicates, pH 8.0, 25 °C); 4.5 ± 0.4 µM (other: DCPIP (air), full progress curve, calculated from kcat and kcat/Km, pH 8.0); 3.7 ± 0.3 µM (other: DCPIP (anaerobic), full progress curve, calculated from kcat and kcat/Km, pH 8.0); 7 ± 1 µM (other: PES/DCPIP, air, initial velocities, 10 replicates, pH 8.0). For the same protein, the Michaelis-Menten constant (Km) (other: PES/DCPIP, anaerobic, initial velocities, 5 replicates, pH 8.0) amounted to 5.5 ± 0.5 µM.
